Assay [1] concerns male db/db mice. As to the kind of experiment: Db/db mouse model, plasma triglycerides. The format is in vivo. From the text:
(§1) The genetically diabetic C57BL/KsJ (db/db) mouse provides an animal model of type 2 diabetes, characterized by obesity, hyperglycemia and insulin resistance with hyperinsulinemia. (Sharma et al., Am J Physiol Renal Physiol. 284(6):F1138-b 44, (2003)).
(§2) In the present study, male db/db mice, 9 weeks of age are used. The animals are randomized by body weight and blood glucose levels into groups of six mice per group. Group 1: vehicle 1: CMC/SLS/Povidone, p.o. […] The animals are dose for 14 days.
Plasma triglycerides are measured on days 7 and 14, 1 hour post dosing.

The subject of the next assay is male ob/ob mice. As to the kind of experiment: Ob/ob mouse model, blood glucose levels. In kind it is in vivo. The conditions noted are these: 1 hour post dose. How it is done: The Ob/ob mouse model is an animal model for hyperglycemia, insulin resistance and obesity. Male ob/ob mice are used to monitor plasma glucose levels and triglyceride levels after treatment with FGF-21, rosiglitazone, and FGF-21 in combination with rosiglitazone. The test groups of male ob/ob, mice (7 weeks old) are: FGF-21, 5 μg/day; rosiglitazone, 30 mg/kg/day; FGF-21, 3 ug/day, +rosiglitazone, 10 mg/kg/day; FGF-21, 5 ug/day, +rosiglitazone, 30 mg/kg/day; FGF-21, 5 ug/day, +rosiglitazone 10 mg/kg/day; s.c. vehicle control (0.9% NaCl, 0.1 ml/mouse); and, p.o. vehicle control (CMC/SLS/Povidone, 0.2 ml/mouse). FGF-21 is administered s.c. in 0.1 ml, and rosiglitazone is administered p.o. in 0.2 ml.
The animals are dosed daily for 14 days. Blood glucose levels are measured daily, 1 hour post dosing, using a standard protocol.

In assay [2] the test system is male db/db mice. Description: Db/db mouse model, blood glucose levels. The format is in vivo. The conditions noted are these: 1 hour post dose.
Source text: as §1, §2
Blood glucose is measured daily, 1 hour post dosing.

Assay [3] concerns differentiated 3T3-L1 cells. As to the kind of experiment: Glucose uptake in mouse 3T3-L1 adipocytes (2-deoxy-D-[14C]glucose accumulation). The format is cell-based. The conditions noted are these: 72 hr. treatment. On the procedure:
3T3-Li cells are obtained from the American Type Culture Collection (ATCC, Rockville, Md.). Cells are cultured in growth medium (GM) containing 10% calf serum in Dulbecco's modified Eagle's medium. For standard adipocyte differentiation, two days after cells reach confluency (referred as day 0), the cells are exposed to differentiation medium (DM) containing 10% fetal bovine serum, 5 μg/ml of insulin, 1 μM dexamethasone, and […] isobutylmethylxanthine, for 48 h and then are exposed to medium containing 10% fetal bovine serum, 5 μg/ml insulin for an additional 48 h. Cells are then maintained in post differentiation medium containing 10% fetal bovine serum.
Glucose Transport Assay—FGF-21 is added to the differentiated 3T3-L1 cells in 96 well plates at 0, 0.016, 0.08, 0.4, 2, 10, or 50.0 nM, and rosiglitazone is added to a final concentration of 1 μM, Table 1. For comparison, rosiglitazone alone is added at the concentrations indicated in Table 2 or in combination with FGF-21 at 1 μg/ml. The plates are incubated at 37° C. for 72 hours.
Hexose uptake, as assayed by the accumulation of 2-deoxy-D-[^14C]glucose, is measured as follows: 24 hours prior to the assay, the wells are rinsed twice with PBS and DMEM (high glucose, 1% antibiotic/antimycotic solution, 2 mM glutamine), 0.1% BSA plus FGF-21 is added. The plates are incubated at 37° C. for 72 hours. The cells are then washed twice with KRP buffer (136 mM NaCl, 4.7 mM KCl, 10 mM NaPO4, 0.9 mM CaCl2, 0.9 MM MgSO4, 0.1% BSA, pH 7.4), and then KRP buffer containing 1% BSA, 2-deoxy-D-glucose, 100 μM, 0.1 μCi/well 2-deoxy-D-[^14C]glucose is added and the plates are incubated at 37° C. for one hour. Cytochalasin B is added to stop further glucose uptake. Uptake is measured on a Microbeta plate reader.

Take `CN(CCOc1ccc(CC2SC(=O)NC2=O)cc1)c1ccccn1` (stereo not drawn) [Rosi., rosiglitazone, reference compound]: the “Plasma Triglycerides” value in the assay on male db/db mice [1] (Rosi. 10 mg/kg/day, Day 7, 1 hour post dose) is reported as 135 mg/dL; in the assay on male db/db mice [1] (Rosi. 10 mg/kg/day, Day 14, 1 hour post dose), 85 mg/dL. In addition, the “Blood Glucose Levels in ob/ob mice” value in the assay with male ob/ob mice (Rosi. 30 mg/kg/day p.o., day 0) came out at 225 mg/dL; with male ob/ob mice (Rosi. 30 mg/kg/day p.o., day 2), 125 mg/dL; in the assay with male ob/ob mice (Rosi. 30 mg/kg/day p.o., day 4), 150 mg/dL; in the assay with male ob/ob mice (Rosi. 30 mg/kg/day p.o., day 6), 135 mg/dL; with male ob/ob mice (Rosi. 30 mg/kg/day p.o., day 8) it was 115 mg/dL; in the assay with male ob/ob mice (Rosi. 30 mg/kg/day p.o., day 10) it was 125 mg/dL. Also, the “Blood Glucose Levels in ob/ob mice” value stood at 120 mg/dL in the assay on male ob/ob mice (Rosi. 30 mg/kg/day p.o., day 12) and 115 mg/dL in the assay with male ob/ob mice (Rosi. 30 mg/kg/day p.o., day 14). Further, the “Blood Glucose Levels in db/db mice” value came out at 265 mg/dL in the assay on male db/db mice [2] (Rosi. 10 mg/kg/day p.o., day 0); 370 mg/dL in the assay on male db/db mice [2] (Rosi. 10 mg/kg/day p.o., day 2); 350 mg/dL with male db/db mice [2] (Rosi. 10 mg/kg/day p.o., day 4); 340 mg/dL in the assay with male db/db mice [2] (Rosi. 10 mg/kg/day p.o., day 6); 265 mg/dL in the assay on male db/db mice [2] (Rosi. 10 mg/kg/day p.o., day 8); 315 mg/dL in the assay on male db/db mice [2] (Rosi. 10 mg/kg/day p.o., day 10). The “Blood Glucose Levels in db/db mice” value in the assay on male db/db mice [2] (Rosi. 10 mg/kg/day p.o., day 12) is 360 mg/dL; with male db/db mice [2] (Rosi. 10 mg/kg/day p.o., day 14), 350 mg/dL.

B1: FGF-21: mature human 181 amino acid FGF-21 polypeptide (SEQ ID NO:1), recombinantly expressed (protein)
chain: HPIPDSSPLLQFGGQVRQRYLYTDDAQQTEAHLEIREDGTVGGAADQSPESLLQLKALKPGVIQILGVKTSRFLCQRPDGALYGSLHFDPEACSFRELLLEDGYNVYQSEAHGLPLHLPGNKSPHRDPAPRGPARFLPLPGLPPALPEPPGILAPQPPDVGSSDPLSMVGPSQGRSPSYAS
modifications: homo sapiens
Turning to B1, the “Plasma Triglycerides” value with male db/db mice [1] (FGF-21 3 ug/day, Day 7, 1 hour post dose) is given as 165 mg/dL; with male db/db mice [1] (FGF-21 3 ug/day, Day 14, 1 hour post dose), 120 mg/dL. Further, the “Blood Glucose Levels in ob/ob mice” value worked out at 225 mg/dL in the assay with male ob/ob mice (FGF-21 5 μg/day s.c., day 0); 175 mg/dL with male ob/ob mice (FGF-21 5 μg/day s.c., day 2); 150 mg/dL in the assay with male ob/ob mice (FGF-21 5 μg/day s.c., day 4); 140 mg/dL with male ob/ob mice (FGF-21 5 μg/day s.c., day 6); 140 mg/dL with male ob/ob mice (FGF-21 5 μg/day s.c., day 8); 160 mg/dL with male ob/ob mice (FGF-21 5 μg/day s.c., day 10). The “Blood Glucose Levels in ob/ob mice” value in the assay on male ob/ob mice (FGF-21 5 μg/day s.c., day 12) is 180 mg/dL; in the assay with male ob/ob mice (FGF-21 5 μg/day s.c., day 14), 225 mg/dL. Moreover, the “14C-Deoxyglucose (CPM)” value in assay [3] (FGF-21 alone 0.4 nM) amounted to 1300 CPM; in assay [3] (FGF-21 alone 2.0 nM) it was 2500 CPM; in assay [3] (FGF-21 alone 10.0 nM), 3100 CPM; in assay [3] (FGF-21 alone 50.0 nM), 3500 CPM; in assay [3] (FGF-21 alone .016 nM) it was 900 CPM; in assay [3] (FGF-21 alone .08 nM) it was 1000 CPM. In addition, the “Blood Glucose Levels in db/db mice” value with male db/db mice [2] (FGF-21 3 μg/day s.c., day 0) amounted to 265 mg/dL; with male db/db mice [2] (FGF-21 3 μg/day s.c., day 2) it was 270 mg/dL; in the assay on male db/db mice [2] (FGF-21 3 μg/day s.c., day 4), 280 mg/dL; in the assay on male db/db mice [2] (FGF-21 3 μg/day s.c., day 6), 300 mg/dL; with male db/db mice [2] (FGF-21 3 μg/day s.c., day 8) it was 290 mg/dL; with male db/db mice [2] (FGF-21 3 μg/day s.c., day 10), 325 mg/dL. Further, the “Blood Glucose Levels in db/db mice” value with male db/db mice [2] (FGF-21 3 μg/day s.c., day 12) was determined as 345 mg/dL; in the assay on male db/db mice [2] (FGF-21 3 μg/day s.c., day 14), 345 mg/dL.

(Values after patent US20090111742A1, “Use of fgf-21 and thiazolidinedione for treating type 2 diabetes” (priority 2004, published 2009).)
